# T1: CHL1 (Arabidopsis thaliana, UniProt Q05085)
# T1 construct: gene NPF6.3; cRNA-injected Xenopus laevis oocytes, positive control
# T1 sequence (Q05085 1-590): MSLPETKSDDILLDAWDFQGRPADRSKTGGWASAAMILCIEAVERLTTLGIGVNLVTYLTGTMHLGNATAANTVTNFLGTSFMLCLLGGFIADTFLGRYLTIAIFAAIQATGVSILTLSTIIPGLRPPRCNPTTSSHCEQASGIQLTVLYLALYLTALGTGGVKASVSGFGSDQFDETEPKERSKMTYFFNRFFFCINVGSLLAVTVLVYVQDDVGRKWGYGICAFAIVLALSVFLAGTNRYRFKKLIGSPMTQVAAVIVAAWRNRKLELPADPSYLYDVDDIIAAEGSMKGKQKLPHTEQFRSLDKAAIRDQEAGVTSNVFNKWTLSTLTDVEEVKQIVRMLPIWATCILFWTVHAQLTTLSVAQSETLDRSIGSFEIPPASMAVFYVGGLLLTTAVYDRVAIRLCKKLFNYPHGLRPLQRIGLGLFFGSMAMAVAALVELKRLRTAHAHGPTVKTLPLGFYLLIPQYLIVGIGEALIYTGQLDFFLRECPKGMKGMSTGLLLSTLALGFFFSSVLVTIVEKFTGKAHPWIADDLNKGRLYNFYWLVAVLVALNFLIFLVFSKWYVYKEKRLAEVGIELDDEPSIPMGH
# B1: NPF5.16 (Arabidopsis thaliana) (protein)
# chain: MAIAEEEAALIEDSVSDSVDHRGLPAGKSSTGGWRSAWYIIGVEVGERFAYFGIGSNLITYLTGPLGQSTATAAVNVNTWSGTASILPVLGAFIADAYLGRYRTIVVASLIYILGLGLLTLSSILILMGLSEQRQHNRNASAKPFFWVNILFFCSLYLVAIGQGGHKPCVQAFGADQFDVGDPKERISRGSFFNWWFLSLSAGITLSIIVVVYVQDNVNWALGFGIPCLFMVMALALFLFGRKTYRYPRGDREGKNNAFARIGRVFLVAFKNRKLKLTHSGQLEVGSYKKCKGQLEFLAKALLPGEGGVEPCSSRDVEDAMALVRLIPIWITSVVSTIPYAQYATFFTKQGVTVDRKILPGFEIPPASFQALIGLSIFISVPTYERVFLPLARLITKKPSGITMLQRIGAGMVLSSLNMVVAALVEMKRLETAKEHGLVDRPDATIPMSIWWFVPQYLLLGMIDVFSLVGTQEFFYDQVPTELRSIGLALSLSAMGLASFLSGFLITVINWATGKNGGDSWFNTNLNRAHVDYFYWLLAAFTAIGFLAFLLLSRLYVYRRVDQV
# notes: cDNA in oocyte vector pOO2, cRNA-injected Xenopus laevis oocytes; EYFP fusion used for localization
# B2: NPF5.12 (Arabidopsis thaliana) (protein)
# chain: MSTSIGDNETGAIVSNENVEFSVDFRGNPSIRSSSGAWKSSGFTMCAEVAEKFAYFGIASNLITYFTEALGESTAVAASNVNLWLGTAAFLPLIWGSIADSFLGRFRTILLTSSFYIMGLGLLTFSATIPSLCNDQETRESCVSQVKVIIFFCALYLIALGEGGFKVCLRAFGADQFDEQDPNESKAKSSYFNWLYFAISIGILTTRLVTNYVQENLSWALGYAIPCLSMMLALFLFLLGIKTYRFSTGGEGRQGKKHDNPFVRIGRVFVAAARNRRQTPSDTCLLLPNESTKKFRFLDRAVISCDSYEVEEAKAVLSLIPIWLCSLVFGIVFAQSPTFFTKQGSTMDRSISSTLQVPAATLQCFISLAILVFIPIYDRLFVPIARSITRKPAGITTLQRISTGIFLSIISMVIAALVEMKRLKTARDHGLVDSPKATVPMSVCWLIPQYILFGVSDVFTMVGLQEFFYGEVPPQLRSMGLALYLSIIGIGNFLSSFMVSVIEEATSQSGQVSWFSNNLNQAHLDYFYWLLACLSSLAFIFTVYFAKSYLYNSPK
# notes: as for B1
# B3: NPF5.11 (Arabidopsis thaliana) (protein)
# chain: MAITYSSADELGNTTEGFLEIRENTSGGWKSARLIIVVQMAERFAYFGIASNLIMYLTGPLGESTAAAAANVNAWTGTVAFLPLLGGFLADSYLGRFRTIIISSSLYILGLGLLSFSTMIPSHQSKDSNQLQETIFFFSLYLVAIGQGGYNPCIKVFGADQFDGNDHKEARDKSSFFNWLMFGNCISILTTRLVSTYIQENLSWSLGFGIPSVSMLLSLFLFLLGTTSYRFSTERVGKKNPFARISRVFMEALKNRRQPDLDIANANANETLLLLAHQSSKQFRFLDRAAISCELAEIEEAKAVLRLIPIWITSVVYTIVHAQSPTFFTKQGATMDRSISPGLLVPAATLQSFINLSVVVFIPIYDRLLVPFARSFTQNSSGITTLQRIGTGIFLSILAMVLAALVETKRLQAARDELSIPMSVWWLIPQYVIFGVSDMFTMVGLQEFFYGQVPSELRSVGMALNLSIYGAGNYLSSFMISVIDKITNQYGQRSWFDNDLDQAHLDYFYWLLACLGFIGFAFYLWFAKSYVYSRSNTF
# notes: as for B1
# Legend:
# [1] = biological target: T1, CHL1; assay: […]-nitrate uptake in cRNA-injected Xenopus oocytes, mass spectrometry; format: cell-based; conditions: pH 5.5, 0.25 mM 15N-nitrate, 12 h; positive control; labelled compound (15N)
# [2] = substrate: O=[N+]([O-])O; assay: cells, lysate or membranes; format: cell-based, Arabidopsis thaliana; conditions: pH 5.5, 1.5 h, 0.25-30 mM, labelled compound (15N)
molecule,measurement,setting,value
O=[N+]([O-])O [nitrate],"15N-nitrate uptake in cRNA-injected Xenopus oocytes, mass spectrometry",[1],CHL1-injected oocytes still showed high uptake activity
B1,Km,[2],2910 µM
B2,Km,[2],4840 µM
B3,Km,[2],2570 µM
